The target of one test is T1, human 4-1BB on cells (human, UniProt Q07011 24-255).
T1 construct: The engineered lines were transduced with NM_001561, amino acids M1 to L255; Residues 1-23 are stated to be the signal peptide; The UniProt number is printed as 007011; This entry also stands for 4-1BB on the Jurkat reporter cells and on primary T cells in the functional assays; also called h4-1BB; TNFRSF9
Put plainly: flow cytometry on HEK293/h4-1BB cells, APC anti-human secondary. The method, then: The ability of the multispecific antigen binding molecules to bind cells was assessed using flow cytometry. Cell lines were chosen to determine the ability of both the anti-CD38 and anti-4-1BB arms to bind their targets. […] Binding was detected by using a labeled secondary antibody and measuring fluorescence on a flow cytometer.
HEK293 and HEK293/4-1BB cells were lifted with trypsin, washed and resuspended in stain buffer (2% FBS in PBS) and added to wells of a 96 well V-bottom plate (3×10⁵ cells/well). A 1:5, 9-point, dose titration of test antibodies was diluted in stain buffer and added to cells to a final concentration ranging from 1.3 pM to 100 nM (a “no antibody” control was included as the ninth point ([…]) labeled as “secondary only”). Cells and antibodies were incubated for 30 min on ice and then washed in stain buffer. Cells were resuspended in 2 ug/ml allophycocyanin (APC) conjugated goat-anti human secondary antibody and incubated for 30 min on ice. Cells were then washed and resuspended in viability dye (according to the manufacturer's protocol) and incubated for 30 min on ice. Cells were then washed with stain buffer and resuspended in 2% PFA for 30 min on ice. After washing, cells were filtered and analyzed by flow cytometry to determine the geometric mean fluorescence intensity (gMFI), which was subsequently plotted using GraphPad Prism software. EC₅₀ values of the antibodies were determined from a 4-parameter logistic equation over a 9-point dose response curve (including secondary only control).
For orientation: A flow cytometer gives signals particle by particle.

Test [1] deals with T2, human 4-1BB expressed with a C-terminal murine Fc tag (human, UniProt Q07011 24-186).
T2 construct: also called h4-1BB.mFc; REGN3585; not shown: C-terminal murine Fc tag
T2 sequence (Q07011 24-186 limits assumed): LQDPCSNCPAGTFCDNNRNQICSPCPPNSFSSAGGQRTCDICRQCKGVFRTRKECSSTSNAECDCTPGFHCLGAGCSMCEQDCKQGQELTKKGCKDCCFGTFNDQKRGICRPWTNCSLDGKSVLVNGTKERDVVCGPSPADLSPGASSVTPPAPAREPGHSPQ
The experiment in a line: SPR Biacore 8k, antibody captured by anti-human Fc, h4-1BB.mFc as analyte, 25 C. The method, then: Equilibrium dissociation constants (KD values) for human 4-1BB expressed with a C-terminal myc-myc-hexahistidine tag (h4-1BB.mmH, REGN3584) or human 4-1BB expressed with a C-terminal murine Fc tag (h4-1BB.mFc, REGN3585) binding to purified anti-CD38×4-1BB 1+2 antibodies were determined using a real-time surface plasmon resonance biosensor using a Biacore 8k instrument. The CM5 Biacore sensor surface was derivatized by amine coupling with a monoclonal mouse anti-human Fc antibody (REGN2567). All Biacore binding studies were performed in a buffer composed of 0.01M HEPES pH 7.4, 0.15M NaCl, 3 mM EDTA, 0.05% v/v Surfactant P20 (HBS-EP running buffer). […] Antibody-reagent association was monitored for 5 minutes while dissociation in HBS-EP running buffer was monitored for 10 minutes. At the end of each cycle, the anti-CD38×4-1BB 1+2 antibody capture surface was regenerated using a 10 second injection of 20 mM phosphoric acid. All binding kinetics experiments were performed at 25° C.
Kinetic association (kₐ) and dissociation (kd) rate constants were determined by fitting the real-time sensorgrams to a 1:1 binding model using Cytiva Insight curve fitting software. Binding dissociation equilibrium constants (KD) and dissociative half-lives (t/2) were calculated from the kinetic rate constants as: […]
On the technique in general: Surface plasmon resonance follows binding to a sensor surface in real time, without labels.

T1 sequence (Q07011 24-255): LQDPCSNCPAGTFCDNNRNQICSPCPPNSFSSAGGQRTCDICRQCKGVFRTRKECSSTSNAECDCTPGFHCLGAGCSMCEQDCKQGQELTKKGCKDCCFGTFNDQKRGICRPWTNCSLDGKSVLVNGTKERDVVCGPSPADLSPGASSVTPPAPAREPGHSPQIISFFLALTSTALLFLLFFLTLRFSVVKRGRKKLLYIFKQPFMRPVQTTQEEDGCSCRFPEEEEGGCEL

B1: REGN7647 (bispecific antibody, human IgG4 S228P, kappa)
heavy 1: EVQLVESGGGLVQPGRSLRLSCGASGFTFDDYVMHWVRQIPGKGLEWVAGISWNSGSIGYADSVKGRFTISRDNAKNSLYLQMNSLRAEDTALYFCAKDHIDPYSSSLYYYYGMDVWGQGTTVTVSSASTKGPSVFPLAPCSRSTSESTAALGCLVKDYFPEPVTVSWNSGALTSGVHTFPAVLQSSGLYSLSSVVTVPSSSLGTKTYTCNVDHKPSNTKVDKRVESKYGPPGGGGSGGGGSGGGGSEVQLVESGGGLVQPGRSLRLSCGASGFTFDDYVMHWVRQIPGKGLEWVAGISWNSGSIGYADSVKGRFTISRDNAKNSLYLQMNSLRAEDTALYFCAKDHIDPYSSSLYYYYGMDVWGQGTTVTVSSASTKGPSVFPLAPCSRSTSESTAALGCLVKDYFPEPVTVSWNSGALTSGVHTFPAVLQSSGLYSLSSVVTVPSSSLGTKTYTCNVDHKPSNTKVDKRVESKYGPPCPPCPAPPVAGPSVFLFPPKPKDTLMISRTPEVTCVVVDVSQEDPEVQFNWYVDGVEVHNAKTKPREEQFNSTYRVVSVLTVLHQDWLNGKEYKCKVSNKGLPSSIEKTISKAKGQPREPQVYTLPPSQEEMTKNQVSLTCLVKGFYPSDIAVEWESNGQPENNYKTTPPVLDSDGSFFLYSRLTVDKSRWQEGNVFSCSVMHEALHNRFTQKSLSLSPGK
heavy 2: EVQLVESGGGLVQPGRSLRLSCAASGFTFDDYAMHWVRQAPGKGLEWVSGISWKSDNIGYADSVKGRFTISRDNAKNSLYLQMNSLRAEDTALYYCAKALGGWKFDYYYGMDVWGQGTTVTVSSASTKGPSVFPLAPCSRSTSESTAALGCLVKDYFPEPVTVSWNSGALTSGVHTFPAVLQSSGLYSLSSVVTVPSSSLGTKTYTCNVDHKPSNTKVDKRVESKYGPPCPPCPAPPVAGPSVFLFPPKPKDTLMISRTPEVTCVVVDVSQEDPEVQFNWYVDGVEVHNAKTKPREEQFNSTYRVVSVLTVLHQDWLNGKEYKCKVSNKGLPSSIEKTISKAKGQPREPQVYTLPPSQEEMTKNQVSLTCLVKGFYPSDIAVEWESNGQPENNYKTTPPVLDSDGSFFLYSRLTVDKSRWQEGNVFSCSVMHEALHNHYTQKSLSLSLGK
light: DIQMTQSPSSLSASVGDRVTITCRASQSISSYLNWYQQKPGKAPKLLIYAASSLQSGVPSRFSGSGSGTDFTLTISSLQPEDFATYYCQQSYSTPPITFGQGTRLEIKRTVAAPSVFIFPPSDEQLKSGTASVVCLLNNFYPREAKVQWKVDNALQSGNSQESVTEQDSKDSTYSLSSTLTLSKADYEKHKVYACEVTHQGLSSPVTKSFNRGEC
notes: 1+2 format, hIgG4P-PVA; The linker between the two 4-1BB Fabs is (G4S)3v15; also called CD38x4-1BB (1 + 2), (G4S)3v15; 26812P2 x 35333P2 (IN) + 35333P2 (OUT)
Turning to B1, in the test with human 4-1BB on cells, the half-maximal effective concentration (EC50) amounted to 0.608 nM and the “MAX gMFI” value came out at 1.4e+06 gMFI. In test [1], the “100 nM h4-1BB.mFc Bind (RU)” value is 224 RU, the Kd turned out to be 1.18 nM, the koff is 0.000231 s⁻¹ and the kon was 195000 M⁻¹ s⁻¹. The same molecule registered a t½ in test [1] of 50 min.

Broadly, the EC50 is the concentration giving half of the maximal effect. A high value points to lower potency in that assay. By Kd is commonly meant the constant that tells how readily two partners part at equilibrium. Low readings indicate tighter binding, high ones weaker binding. Usually koff stands for the first-order rate constant of dissociation. A low value points to slow dissociation. Broadly, the kon is a measure of how fast the partners come together. Usually t½ stands for the time needed for the level to fall by half in the phase considered. A low value points to rapid decline.

For the origin of these results see patent publication US20230416396A1 (Regeneron, published 2023).
